Results reported in paper doi:10.1101/2024.06.27.600912 (bioRxiv, 2024).

B1: MORC2 phosphodead mutant (S725A, S730A, S739A, S743A, S777A, S779A), full length (natural protein)
chain: MAFTNYSSLNRAQLTFEYLHTNSTTHEFLFGALAELVDNARDADATRIDIYAERREDLRGGFMLCFLDDGAGMDPSDAASVIQFGKSAKRTPESTQIGQYGNGLKSGSMRIGKDFILFTKKEDTMTCLFLSRTFHEEEGIDEVIVPLPTWNARTREPVTDNVEKFAIETELIYKYSPFRTEEEVMTQFMKIPGDSGTLVIIFNLKLMDNGEPELDIISNPRDIQMAETSPEGTKPERRSFRAYAAVLYIDPRMRIFIHGHKVQTKRLSCCLYKPRMYKYTSSRFKTRAEQEVKKAEHVARIAEEKAREAESKARTLEVRLGGDLTRDSRVMLRQVQNRAITLRREADVKKRIKEAKQRALKEPKELNFVFGVNIEHRDLDGMFIYNCSRLIKMYEKVGPQLEGGMACGGVVGVVDVPYLVLEPTHNKQDFADAKEYRHLLRAMGEHLAQYWKDIAIAQRGIIKFWDEFGYLSANWNQPPSSELRYKRRRAMEIPTTIQCDLCLKWRTLPFQLSSVEKDYPDTWVCSMNPDPEQDRCEASEQKQKVPLGTFRKDMKTQEEKQKQLTEKIRQQQEKLEALQKTTPIRSQADLKKLPLEVTTRPSTEEPVRRPQRPRSPPLPAVIRNAPSRPPSLPTPRPASQPRKAPVISSTPKLPALAAREEASTSRLLQPPEAPRKPANTLVKTASRPAPLVQQLSPSLLPNSKSPREVPSPKVIKTPVVKKTEAPIKLAPATPSRKRAVAVADEEEVEEEAERRKERCKRGRFVVKEEKKDSNELADAAGEEDSADLKRAQKDKGLHVEVRVNREWYTGRVTAVEVGKHVVRWKVKFDYVPTDTTPRDRWVEKGSEDVRLMKPPSPEHQSLDTQQEGGEEEVGPVAQQAIAVAEPSTSECLRIEPDTTALSTNHETIDLLVQILRNCLRYFLPPSFPISKKQLSAMNSDELISFPLKEYFKQYEVGLQNLCNSYQSRADSRAKASEESLRTSERKLRETEEKLQKLRTNIVALLQKVQEDIDINTDDELDAYIEDLITKGD
B2: full-length MORC2 ATPase-dead mutant S87A (natural protein)
chain: MAFTNYSSLNRAQLTFEYLHTNSTTHEFLFGALAELVDNARDADATRIDIYAERREDLRGGFMLCFLDDGAGMDPSDAASVIQFGKAAKRTPESTQIGQYGNGLKSGSMRIGKDFILFTKKEDTMTCLFLSRTFHEEEGIDEVIVPLPTWNARTREPVTDNVEKFAIETELIYKYSPFRTEEEVMTQFMKIPGDSGTLVIIFNLKLMDNGEPELDIISNPRDIQMAETSPEGTKPERRSFRAYAAVLYIDPRMRIFIHGHKVQTKRLSCCLYKPRMYKYTSSRFKTRAEQEVKKAEHVARIAEEKAREAESKARTLEVRLGGDLTRDSRVMLRQVQNRAITLRREADVKKRIKEAKQRALKEPKELNFVFGVNIEHRDLDGMFIYNCSRLIKMYEKVGPQLEGGMACGGVVGVVDVPYLVLEPTHNKQDFADAKEYRHLLRAMGEHLAQYWKDIAIAQRGIIKFWDEFGYLSANWNQPPSSELRYKRRRAMEIPTTIQCDLCLKWRTLPFQLSSVEKDYPDTWVCSMNPDPEQDRCEASEQKQKVPLGTFRKDMKTQEEKQKQLTEKIRQQQEKLEALQKTTPIRSQADLKKLPLEVTTRPSTEEPVRRPQRPRSPPLPAVIRNAPSRPPSLPTPRPASQPRKAPVISSTPKLPALAAREEASTSRLLQPPEAPRKPANTLVKTASRPAPLVQQLSPSLLPNSKSPREVPSPKVIKTPVVKKTESPIKLSPATPSRKRSVAVSDEEEVEEEAERRKERCKRGRFVVKEEKKDSNELSDSAGEEDSADLKRAQKDKGLHVEVRVNREWYTGRVTAVEVGKHVVRWKVKFDYVPTDTTPRDRWVEKGSEDVRLMKPPSPEHQSLDTQQEGGEEEVGPVAQQAIAVAEPSTSECLRIEPDTTALSTNHETIDLLVQILRNCLRYFLPPSFPISKKQLSAMNSDELISFPLKEYFKQYEVGLQNLCNSYQSRADSRAKASEESLRTSERKLRETEEKLQKLRTNIVALLQKVQEDIDINTDDELDAYIEDLITKGD

Target: the molecule itself
Experiment: cryo-EM structure

| Protein | binding result |
| --- | --- |
| B1 | binds |
| B2 | binds |
